Reference: PMC5814911 (Nucleic Acids Research, 2017)
One block for each molecule: values may come before it.

What was measured:
[1] = target: T1, PobR (PobRFL) (Streptomyces coelicolor (cosmid StE8; M600 is the wild-type strain used)) (UniProt Q9Z4X2); assay: EMSA
T1 sequence: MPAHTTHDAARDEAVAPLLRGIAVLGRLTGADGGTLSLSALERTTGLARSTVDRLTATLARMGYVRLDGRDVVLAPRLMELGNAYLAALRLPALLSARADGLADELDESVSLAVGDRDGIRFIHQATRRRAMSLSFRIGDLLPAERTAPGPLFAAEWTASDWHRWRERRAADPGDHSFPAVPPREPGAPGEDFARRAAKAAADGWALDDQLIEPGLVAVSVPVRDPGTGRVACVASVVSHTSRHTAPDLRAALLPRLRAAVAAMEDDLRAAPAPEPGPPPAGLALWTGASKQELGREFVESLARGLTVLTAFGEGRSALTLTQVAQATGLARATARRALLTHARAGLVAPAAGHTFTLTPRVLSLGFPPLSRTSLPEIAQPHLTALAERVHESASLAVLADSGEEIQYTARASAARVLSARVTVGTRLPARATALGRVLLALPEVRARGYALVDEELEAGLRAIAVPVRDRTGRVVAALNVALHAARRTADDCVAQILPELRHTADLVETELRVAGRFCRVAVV

[2] = target: PobR (product of SCO3209), full length, Streptomyces coelicolor (Streptomyces coelicolor); assay: SEC
[3] = target: PobR (product of SCO3209), full length, Streptomyces coelicolor (Streptomyces coelicolor); assay: SAXS
[4] = target: T1, PobR (PobRFL) (Streptomyces coelicolor (cosmid StE8; M600 is the wild-type strain used)); assay: DNase I footprinting
PobR = target: T2, PobR (Streptomyces coelicolor, UniProt Q9Z4X2); assay: ITC and crystal structure at […] Å; format: binding
T2 sequence (Q9Z4X2 1-524): T1 sequence

Molecule: GCATCGGTCGTTCCCTTCGATCGGCGTCGTTGCCTTGCTCGAGCCGGCAGTTGTTCGCGTCGCGTTGTCGCGTTGTCGCCTGTTCGCGTGGTGAAAATTTCTTCACCATCAACTGCGC (double strand) [118-bp pobA promoter probe]
binding [1]: binds

Molecule: PobR (product of SCO3209), full length, Streptomyces coelicolor (natural protein)
stoichiometry N [2]: 2
stoichiometry N [3]: 2

Molecule: GCATCGGTCGTTCCCTTCGATCGGCGTCGTTGCCTTGCTCGAGCCGGCAGTTGTTCGCGTCGCGTTGTCGCGTTGTCGCCTGTTCGCGTGGTGAAAATTTCTTCACCATCAACTGCGC (double strand) [118-bp pobA promoter probe, 5'-32P]
binding [4]: binds

Kd (PobR): 5.8 ± 0.5 µM
Molecule: O=C(O)c1ccc(O)cc1 [PHB, para-hydroxybenzoate]
